Assay results as given in patent US20230277682A1 (priority 2022, published 2023).

B1: mAb11729 (antibody, V domains shown)
VH: QVQLVQSGAEVKKSGSSVKVSCKASGGTFSSYAISWVRQAPGQGLEWMGGIIPIFGTPSYAQKFQDRVTITTDESTSTVYMELSSLRSEDTAVYYCARQQPVYQYNMDVWGQGTTVTVSS
VL: DIQMTQSPSSLSASVGDRVTITCRASQGIRNNLGWYQQKPLKAPKRLIYAASSLQSGVPSRFSGSGSGTEFTLTISSLQPEDFATYYCLQYNNYPWTFGQGTKVEIK
B2: 11729-HC-Cterm-LLQGA-10b (conjugate)
heavy: QVQLVQSGAEVKKSGSSVKVSCKASGGTFSSYAISWVRQAPGQGLEWMGGIIPIFGTPSYAQKFQDRVTITTDESTSTVYMELSSLRSEDTAVYYCARQQPVYQYNMDVWGQGTTVTVSSLLQGA
VL: B1 VL
modifications: left off: a dimerising Fc or GST
B3: 11729-HC-Cterm-LLQGA-19a (conjugate)
heavy: B2 heavy
VL: B1 VL
modifications: left off: a dimerising Fc or GST
B4: 11729-HC-Cterm-LLQGA-19b (conjugate)
heavy: B2 heavy
VL: B1 VL
modifications: left off: a dimerising Fc or GST
B5: 11729-HC-Cterm-LLQGA-19C (conjugate)
heavy: B2 heavy
VL: B1 VL
modifications: left off: a dimerising Fc or GST

Tested on: H1N1 A/Puerto Rico/08/1934 influenza virus
Format: cell-based

| Molecule | antiviral activity against H1N1 in vitro | Fold Increase over Parental Antibody |
| --- | --- | --- |
| B1 | displays antiviral activity against H1N1 in vitro |  |
| B2 |  | 6.96 fold |
| B3 |  | 7.75 fold |
| B4 |  | 15.76 fold |
| B5 |  | 28.78 fold |
